Non-standard residues stand in square brackets, D forms with d. No end group written: not given here. pY = N[C@@H](Cc1ccc(OP(=O)(O)O)cc1)C(=O)O
Tests used:
[1] = biological target: Syk tandem SH2 (tSH2) domain; assay: FP; 50 mM KCl, 100 mM NaCl
[2] = biological target: Syk tandem SH2 (tSH2) domain; assay: FP; 20 mM KCl, 130 mM NaCl
[3] = biological target: Syk tandem SH2 (tSH2) domain; assay: FP; 0 mM KCl, 150 mM NaCl
[4] = biological target: Syk tandem SH2 (tSH2) domain; assay: FP; 5 mM KCl, 145 mM NaCl
[5] = biological target: Syk tandem SH2 (tSH2) domain; assay: intrinsic Trp fluorescence; 20 mM KCl, 130 mM NaCl
[6] = biological target: Syk tandem SH2 (tSH2) domain; assay: intrinsic Trp fluorescence; 50 mM KCl, 100 mM NaCl
[7] = biological target: Syk tandem SH2 (tSH2) domain; assay: intrinsic Trp fluorescence; 5 mM KCl, 145 mM NaCl
[8] = biological target: Syk tandem SH2 (tSH2) domain; assay: intrinsic Trp fluorescence; 0 mM KCl, 150 mM NaCl

Binder	Kd [1] [nM]	Kd [2] [nM]	Kd [3] [nM]	Kd [4] [nM]	Kd [5] [nM]	Kd [6] [nM]	Kd [7] [nM]	Kd [8] [nM]
NQL[pY]NELNLGRREE[pY]DVLD (also: AlexaFluor 488 label, position not given here) [ITAM-ζ1-Y2P peptide labeled with AlexaFluor488]	84.9	81.1	85.5	85.5	–	–	–	–
NQL[pY]NELNLGRREE[pY]DVLD [ITAM-ζ1-Y2P peptide (doubly phosphorylated first ITAM of the CD3-ζ chain)]	–	–	–	–	84.3	82.7	86	97.5

— PMC13235457 (2026)
